Values belong to the binder of their own block, whether it stands above or below them.
Target: T1, TwinStrep-tagged UPF1 CH domain (residues 110-282) (human, UniProt Q92900 110-282)
T1 sequence (looked up): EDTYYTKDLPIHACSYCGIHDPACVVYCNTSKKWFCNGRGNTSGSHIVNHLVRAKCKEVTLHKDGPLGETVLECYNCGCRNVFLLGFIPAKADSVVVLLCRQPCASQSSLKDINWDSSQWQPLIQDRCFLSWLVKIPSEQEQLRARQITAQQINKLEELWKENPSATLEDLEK
Experiment: ITC

Kd: 1460 ± 250 nM
B1: MBP-tagged UPF2 residues 1095-1250 (UPF2 CH-binding domain) (domain or fragment, human, UniProt Q9HAU5 1095-1250, looked up)
chain: VMIKGGGLKHVPCVEDEDFIQALDKMMLENLQQRSGESVKVHQLDVAIPLHLKSQLRKGPPLGGGEGEAESADTMPFVMLTRKGNKQQFKILNVPMSSQLAANHWNQQQAEQEERMRMKKLTLDINERQEQEDYQEMLQSLAQRPAPANTNRERRP

Kd: 4280 ± 250 nM
B2: MBP-tagged SMG6 residues 390-430 (SMG6 CH-binding domain) (domain or fragment, human, UniProt Q86US8 390-430, looked up)
chain: EKQESKNPKQELRGRGRGILILPAHTTLSVNSAGSPESAPL

Reference: article PMC11162806 (Nucleic Acids Research, 2024)
